The Human Domainome abundance scans (Beltran et al. 2025)
± gives the uncertainty stated by the source.

B1: Zinc finger homeobox protein 3, residues 2643 to 2698; numbered along this chain, Q15911 (parent)
chain: RLRTTITPEQLEILYQKYLLDSNPTRKMLDHIAHEVGLKKRVVQVWFQNTRARERK

Variants of: B1
Experiment: abundance fitness (aPCA) (normalised: wild type 0, dead -1); higher = more abundant; growth selection in yeast, the domain comes from the species named
Conditions: Homo sapiens

**Q.** Which abundance fitness does the source give for RLRTTITPEQLEILYQKYLLDSNPTRKMLDHIAHEVGLKKRVVQVWFQNTRARERY here?
**A.** -0.54 ± 0.19

**Q.** For RLRTTITPEQLEILYQKYLLDSNPTRKMLDHIAHEVGLKKRVVQVWQQNTRARERK, which abundance fitness is on record?
**A.** -0.887 ± 0.16

**Q.** With RLRTTITPEQLEILYQKYLLDSNPTRKMLDHIAHEVGLKKRVVQVWFQNCRARERK as the variant, how does the abundance fitness read?
**A.** -0.078 ± 0.11

**Q.** With RLRTTITPEQLEILYQKYLLDSNPTRKMLDHIAHEVQLKKRVVQVWFQNTRARERK as the variant, how does the abundance fitness read?
**A.** -0.147 ± 0.1

**Q.** Which abundance fitness does the source give for RLRTTITPEQLEILYQKYLLDSNPTRKMLDHIAHEVGLKKRVVQVLFQNTRARERK here?
**A.** -0.758 ± 0.12

**Q.** Which abundance fitness does the source give for RLRTTITPEQLEILYQKYLLDSNPTRKMLDHIAHEVGLKKRVVQVDFQNTRARERK here?
**A.** -0.815 ± 0.2

**Q.** With RLRTTITPEQLEILYQKYLLDSNPTRKMLDHIAHEVGCKKRVVQVWFQNTRARERK as the variant, how does the abundance fitness read?
**A.** -0.329 ± 0.14

**Q.** Which abundance fitness does the source give for RLRTTITPEQLEILYQKYLLDSNPTRKMLDHIAHEVGMKKRVVQVWFQNTRARERK here?
**A.** -0.009 ± 0.13

**Q.** With RLRTTITPEQLEILYQKYLLDSNPTRKMLDHIAHEVGLKKRVVQVWFQNTWARERK as the variant, how does the abundance fitness read?
**A.** -0.135 ± 0.11

**Q.** Which abundance fitness does the source give for RLRTTITPEQLEILYQKYLLDSNPTRKMLDHIAHLVGLKKRVVQVWFQNTRARERK here?
**A.** -0.205 ± 0.079

**Q.** Which abundance fitness does the source give for RLRTTITPEQLEILYQKYLLDSNPTRKMLDHIAHYVGLKKRVVQVWFQNTRARERK here?
**A.** -0.556 ± 0.14

**Q.** Which abundance fitness does the source give for RLRTTITPEQLEILYQKYLLDSNPTRKMLDHIAHMVGLKKRVVQVWFQNTRARERK here?
**A.** -0.417 ± 0.11

**Q.** Which abundance fitness does the source give for RLRTTITPGQLEILYQKYLLDSNPTRKMLDHIAHEVGLKKRVVQVWFQNTRARERK here?
**A.** -0.234 ± 0.081

**Q.** Which abundance fitness does the source give for RLRTTITPQQLEILYQKYLLDSNPTRKMLDHIAHEVGLKKRVVQVWFQNTRARERK here?
**A.** -0.038 ± 0.1

**Q.** For RLRTTITPEQLEILYQKYLLDSNPTRKMLDHIAHEVGLKKGVVQVWFQNTRARERK, which abundance fitness is on record?
**A.** 0.353 ± 0.079

**Q.** With RLRTTITPEQLEILYQKYLLDSNPTRKMLDHIAHEVGLKKSVVQVWFQNTRARERK as the variant, how does the abundance fitness read?
**A.** 0.411 ± 0.1

**Q.** Which abundance fitness does the source give for RLRTTITPEQLEILYQKYLLDSNPTRKMLDHIAHEVGLKKRVVQWWFQNTRARERK here?
**A.** -0.317 ± 0.11

**Q.** For RLRTTITPEQLEILYQKYLLDSNPTRYMLDHIAHEVGLKKRVVQVWFQNTRARERK, which abundance fitness is on record?
**A.** -0.241 ± 0.18

**Q.** Which abundance fitness does the source give for RLRTTITPEQLEILYQKYLLDSNPTREMLDHIAHEVGLKKRVVQVWFQNTRARERK here?
**A.** 0.243 ± 0.094

**Q.** Which abundance fitness does the source give for RLRTTITPEQLEILYQKYLLDSNPTRKMLDHIAHEVGLKKRVVQVWFQKTRARERK here?
**A.** 0.011 ± 0.12

**Q.** With RLRTTITPEQLEILYQKYLLDSNPTRKMLDHIAHEVGLKKRVVQVWFQSTRARERK as the variant, how does the abundance fitness read?
**A.** -0.029 ± 0.089

**Q.** Which abundance fitness does the source give for RLRTTITPEQLEILYQKYLLDSNPTRKMLDHIAHEVGLKKRVVQVWFQGTRARERK here?
**A.** -0.234 ± 0.078

**Q.** For RLRTTITPEQLEILYQKYLLDSNSTRKMLDHIAHEVGLKKRVVQVWFQNTRARERK, which abundance fitness is on record?
**A.** -0.764 ± 0.11

**Q.** With RLITTITPEQLEILYQKYLLDSNPTRKMLDHIAHEVGLKKRVVQVWFQNTRARERK as the variant, how does the abundance fitness read?
**A.** 0.19 ± 0.14

**Q.** For RLETTITPEQLEILYQKYLLDSNPTRKMLDHIAHEVGLKKRVVQVWFQNTRARERK, which abundance fitness is on record?
**A.** 0.366 ± 0.1

**Q.** For RLRYTITPEQLEILYQKYLLDSNPTRKMLDHIAHEVGLKKRVVQVWFQNTRARERK, which abundance fitness is on record?
**A.** -0.254 ± 0.18

**Q.** For RLRDTITPEQLEILYQKYLLDSNPTRKMLDHIAHEVGLKKRVVQVWFQNTRARERK, which abundance fitness is on record?
**A.** 0.154 ± 0.19

**Q.** Which abundance fitness does the source give for RLRTTITPEQLEILYQKYLLDSNPTRKMLYHIAHEVGLKKRVVQVWFQNTRARERK here?
**A.** -0.269 ± 0.14

**Q.** Which abundance fitness does the source give for RLRTTITPEQLEILYQKYLLDSDPTRKMLDHIAHEVGLKKRVVQVWFQNTRARERK here?
**A.** -0.336 ± 0.27

**Q.** For RLRTTVTPEQLEILYQKYLLDSNPTRKMLDHIAHEVGLKKRVVQVWFQNTRARERK, which abundance fitness is on record?
**A.** -0.022 ± 0.08

**Q.** Which abundance fitness does the source give for RLRTTCTPEQLEILYQKYLLDSNPTRKMLDHIAHEVGLKKRVVQVWFQNTRARERK here?
**A.** -0.022 ± 0.1

**Q.** Which abundance fitness does the source give for RLRTTITPEQTEILYQKYLLDSNPTRKMLDHIAHEVGLKKRVVQVWFQNTRARERK here?
**A.** -0.117 ± 0.14

**Q.** For RLRTTITPEQKEILYQKYLLDSNPTRKMLDHIAHEVGLKKRVVQVWFQNTRARERK, which abundance fitness is on record?
**A.** -0.143 ± 0.12

**Q.** With RLRTTITPEQLEILYQKNLLDSNPTRKMLDHIAHEVGLKKRVVQVWFQNTRARERK as the variant, how does the abundance fitness read?
**A.** -0.705 ± 0.32

**Q.** Which abundance fitness does the source give for RLRTTITPEQLEILYQKRLLDSNPTRKMLDHIAHEVGLKKRVVQVWFQNTRARERK here?
**A.** -0.865 ± 0.11

**Q.** With RLRTTITPEQLEILYQKYLLDSNPTRKMLDHIAHEVGLKKRVIQVWFQNTRARERK as the variant, how does the abundance fitness read?
**A.** -0.127 ± 0.15

**Q.** Which abundance fitness does the source give for RLRTTITPEQLEILYQKYLLDSNPTRKMLDHIAHEVGLKKRVCQVWFQNTRARERK here?
**A.** -0.345 ± 0.15

**Q.** Which abundance fitness does the source give for RLRTTITPEQLEILYQKYLLDSNPTRKMLDHIAHEVGLKKRVHQVWFQNTRARERK here?
**A.** -0.973 ± 0.23

**Q.** Which abundance fitness does the source give for RLRTTITPEQLEILYQKYLLDSNPTRKMLDHIAHEVGLKKRVDQVWFQNTRARERK here?
**A.** -0.867 ± 0.15

**Q.** For RLRTTITPEQLEILYQKYLLDSNPTRKMLDHIAHEVGLKKRVFQVWFQNTRARERK, which abundance fitness is on record?
**A.** -0.815 ± 0.28

**Q.** Which abundance fitness does the source give for RLRTTITPEQLEILYQKYLLDSNPTRKMLDHRAHEVGLKKRVVQVWFQNTRARERK here?
**A.** -1.01 ± 0.11

**Q.** With RLRTTITPEQLEILYQKYLLDSNPTRKMLDHLAHEVGLKKRVVQVWFQNTRARERK as the variant, how does the abundance fitness read?
**A.** -0.123 ± 0.08

**Q.** Which abundance fitness does the source give for RLRTTITPEQLEIKYQKYLLDSNPTRKMLDHIAHEVGLKKRVVQVWFQNTRARERK here?
**A.** -0.899 ± 0.16

**Q.** With RLRTTITPEQLEIMYQKYLLDSNPTRKMLDHIAHEVGLKKRVVQVWFQNTRARERK as the variant, how does the abundance fitness read?
**A.** -0.17 ± 0.11

**Q.** For RLRTTITPEQLEILYQKYLLDSNPTRKMLDHIAHEVGLKKRVVQVWFQNTRASERK, which abundance fitness is on record?
**A.** 0.133 ± 0.086

**Q.** With RLRTTITPEQLEILYQKYLLDSNPTRKMLDHIAHEVGLKKRVVQVWFQNTRAMERK as the variant, how does the abundance fitness read?
**A.** -0.132 ± 0.098

**Q.** For RLRTTITPEQLEILYQKYLLDSNPTRKMLDHIAHEVGLKKRVVQVWFQNTRATERK, which abundance fitness is on record?
**A.** 0.029 ± 0.11
